T1: alcalase (trade name "Alcalase 2.5L", Novozymes) (UniProt P00780)
T1 sequence (looked up): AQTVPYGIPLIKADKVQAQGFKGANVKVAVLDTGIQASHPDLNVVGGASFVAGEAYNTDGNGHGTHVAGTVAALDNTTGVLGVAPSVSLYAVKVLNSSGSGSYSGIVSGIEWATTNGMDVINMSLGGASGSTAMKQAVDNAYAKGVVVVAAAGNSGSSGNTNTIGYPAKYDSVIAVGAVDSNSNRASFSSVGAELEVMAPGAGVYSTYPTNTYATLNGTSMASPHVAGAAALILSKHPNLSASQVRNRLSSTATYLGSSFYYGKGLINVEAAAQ


What follows are binders tested against T1, alcalase (trade name "Alcalase 2.5L", Novozymes) (assay: cell-based or functional assay).

Row | Binder | Protease activity upon dilution (%) immediately after preparation [%] | Remaining activity (%) immediately after preparation [%]
1 | proteinaceous protease inhibitor of SEQ ID NO:26 (protein) TDTGDHHNQKTDWPELVGKSVEEAPKVILQDKSEAPIAVLPVGTLVTAEAAAARVRLFVDSLDKIAQVPAVG | 85 | 19
2 | proteinaceous protease inhibitor of SEQ ID NO:30 (protein) MSSVEKKPEGVNTGAGDRHNLKTAWPELVGKSVEEAKKVILQDKSEAQIIVLPVGTIVTMEYRIDRVRLFVDKLDNIAQVPRVG | 80 | 15
3 | proteinaceous protease inhibitor of SEQ ID NO:32 (protein) MSSVEKKPEGVNTGAGDRHNLKTEWPELVGKSVEEAKKVILQDKSEAQIIVLPVGTIVTMEARIDRVRLFVDKLDNIAQVPRVG | 73 | 15
4 | proteinaceous protease inhibitor of SEQ ID NO:34 (protein) MSSVEKKPEGVNTGAGDRHNLKTEWPELVGKSVEEAKKVILQDKSEAQIIVLPVGTIVTMEYRADRVRLFVDKLDNIAQVPRVG | 75 | 1
5 | proteinaceous protease inhibitor of SEQ ID NO:33 (protein) MSSVEKKPEGVNTGAGDRHNLKTEWPELVGKSVEEAKKVILQDKSEAQIIVLPVGTIVTMEYAIDRVRLFVDKLDNIAQVPRVG | 18 | 1
6 | proteinaceous protease inhibitor of SEQ ID NO:21 (protein) TDTGDHHNQKTEWPELVGKSVEEAKKVILQDKSEAQIVVLPVGTIVTMEYRIDRVRLFVDSLDKIAQVPKVG | 100 | 13
7 | proteinaceous protease inhibitor of SEQ ID NO:17 (protein) TDTGDHHNQKTEWPELVGKSVEEAKKVILQDKSEAQIVVLPVGTIVTMEYRIERVRLFVDSLDKIAQVPRVG | 95 | 9
8 | proteinaceous protease inhibitor of SEQ ID NO:19 (protein) TDTGDHHNQKTEWPELVGKSVEEAKKVILQDKSEAQIVVLPVGTIVTMEYRIDRVRLFVDSLDKIAQVPAVG | 85 | 2
9 | proteinaceous protease inhibitor of SEQ ID NO:4 (protein) TDTGDHHNQKTEWPELVGKSVEEAKKVILQDKSEAQIAVLPVGTIVTMEYRIDRVRLFVDSLDKIAQVPRVG | 80 | 2
10 | proteinaceous protease inhibitor of SEQ ID NO:9 (protein) TDTGDHHNQKTEWPELVGKSVEEAKKVILQDKSEAQIVVLPVGTIVTMEARIDRVRLFVDSLDKIAQVPRVG | 85 | 18
11 | proteinaceous protease inhibitor of SEQ ID NO:25 (protein) TDTGDHHNQKTEWPELVGKSVEEAKKVILQDKSEAQIAVLPVGTIVTMEYRIDRVRLFVDSLDKIAQVPAVG | 80 | 1
12 | proteinaceous protease inhibitor of SEQ ID NO:18 (protein) TDTGDHHNQKTEWPELVGKSVEEAKKVILQDKSEAQIVVLPVGTIVTMEYRIARVRLFVDSLDKIAQVPRVG | 85 | 3
13 | proteinaceous protease inhibitor of SEQ ID NO:14 (protein) TDTGDHHNQKTEWPELVGKSVEEAKKVILQDKSEAQIVVLPVGTIVTMEYHIDRVRLFVDSLDKIAQVPRVG | 85 | 5
14 | proteinaceous protease inhibitor of SEQ ID NO:15 (protein) TDTGDHHNQKTEWPELVGKSVEEAKKVILQDKSEAQIVVLPVGTIVTMEYRADRVRLFVDSLDKIAQVPRVG | 80 | 3
15 | proteinaceous protease inhibitor of SEQ ID NO:27 (protein) TDTGDHHNQKTKWPELVGKSVEEAKKVILQDKSEAQIVVLPVGTIVTMEYRIDRVRLFVDSLDKIAQVPRVG | 98 | 16
16 | proteinaceous protease inhibitor of SEQ ID NO:3 (protein) TDTGDHHNQKTAWPELVGKSVEEAKKVILQDKSEAQIVVLPVGTIVTMEYRIDRVRLFVDSLDKIAQVPRVG | 89 | 7
17 | proteinaceous protease inhibitor of SEQ ID NO:8 (protein) TDTGDHHNQKTEWPELVGKSVEEAKKVILQDKSEAQIVVLPVGTIVTGEYRIDRVRLFVDSLDKIAQVPRVG | 85 | 23
18 | proteinaceous protease inhibitor of SEQ ID NO:24 (protein) TDTGDHHNQKTEWPELVGKSVEEAKKVILQDKSEAQIVVLPVGTIVTGEYRIDRVRLFVDSLDKIAQVPAVG | 82 | 20

Now from value to binder:

Row | Protease activity upon dilution (%) immediately after preparation [%] | Remaining activity (%) immediately after preparation [%] | Binder
19 | 80 | 2 | proteinaceous protease inhibitor of SEQ ID NO:35 (protein) MSSVEKKPEGVNTGAGDRHNLKTEWPELVGKSVEEAKKVILQDKSEAQIIVLPVGTIVTMEYRIARVRLFVDKLDNIAQVPRVG
20 | 81 | 1 | proteinaceous protease inhibitor of SEQ ID NO:36 (protein) MSSVEKKPEGVNTGAGDRHNLKTEWPELVGKSVEEAKKVILQDKSEAQIIVLPVGTIVTMEYRIDRVRLFVDKLDNIAQVPAVG
21 | 75 | 2 | proteinaceous protease inhibitor of SEQ ID NO:31 (protein) MSSVEKKPEGVNTGAGDRHNLKTEWPELVGKSVEEAKKVILQDKSEAQIAVLPVGTIVTMEYRIDRVRLFVDKLDNIAQVPRVG
22 | 100 | 10 | proteinaceous protease inhibitor of SEQ ID NO:2 (protein) TDTGDHHNQKTDWPELVGKSVEEAKKVILQDKSEAQIVVLPVGTIVTMEYRIDRVRLFVDSLDKIAQVPRVG
23 | 82 | 1 | proteinaceous protease inhibitor of SEQ ID NO:23 (protein) TDTGDHHNQKTEWPELVGKSVEEAKKVILQDKSEAQIAVLPVGTIVTMEYRAARVRLFVDSLDKIAQVPRVG
24 | 82 | 1 | proteinaceous protease inhibitor of SEQ ID NO:22 (protein) TDTGDHHNQKTEWPELVGKSVEEAKKVILQDKSEAQIAVLPVGTIVTMEYAADRVRLFVDSLDKIAQVPRVG
25 | 95 | 9 | proteinaceous protease inhibitor of SEQ ID NO:16 (protein) TDTGDHHNQKTEWPELVGKSVEEAKKVILQDKSEAQIVVLPVGTIVTMEYRVDRVRLFVDSLDKIAQVPRVG
26 | 90 | 9 | proteinaceous protease inhibitor of SEQ ID NO:10 (protein) TDTGDHHNQKTEWPELVGKSVEEAKKVILQDKSEAQIVVLPVGTIVTMELRIDRVRLFVDSLDKIAQVPRVG
27 | 86 | 25 | proteinaceous protease inhibitor of SEQ ID NO:7 (protein) TDTGDHHNQKTEWPELVGKSVEEAKKVILQDKSEAQIVVLPVGTIVTAEYRIDRVRLFVDSLDKIAQVPRVG
28 | 95 | 19 | proteinaceous protease inhibitor of SEQ ID NO:29 (protein) TDTGDHHNQKTEWPELVGKSVEEAKKVILQDKSEAQIVVLPVGTIVTMEYRIDRVRLFVDSLDKIAQVPNVG
29 | 90 | 8 | proteinaceous protease inhibitor of SEQ ID NO:11 (protein) TDTGDHHNQKTEWPELVGKSVEEAKKVILQDKSEAQIVVLPVGTIVTMEFRIDRVRLFVDSLDKIAQVPRVG
30 | 25 | 4 | proteinaceous protease inhibitor of SEQ ID NO:13 (protein) TDTGDHHNQKTEWPELVGKSVEEAKKVILQDKSEAQIVVLPVGTIVTMEYKIDRVRLFVDSLDKIAQVPRVG
31 | 90 | 18 | proteinaceous protease inhibitor of SEQ ID NO:28 (protein) TDTGDHHNQKTEWPELVGKSVEEAKKVILQDKSEAQIVVLPVGTIVTMEGRIDRVRLFVDSLDKIAQVPRVG
32 | 100 | 10 | proteinaceous protease inhibitor of SEQ ID NO:20 (protein) TDTGDHHNQKTEWPELVGKSVEEAKKVILQDKSEAQIVVLPVGTIVTMEYRIDRVRLFVDSLDKIAQVPGVG
33 | 20 | 2 | proteinaceous protease inhibitor of SEQ ID NO:12 (protein) TDTGDHHNQKTEWPELVGKSVEEAKKVILQDKSEAQIVVLPVGTIVTMEYAIDRVRLFVDSLDKIAQVPRVG

Reference: US20140357543A1
